Experimental data: patent US20230263900A1, “DENDRIMER-DRUG CONJUGATE” (priority 2020, published 2023)

Test: Pharmacokinetic studies of RHa-5 and RHa-15, single IV or SC administration, compared with RDV
Assay type: in vivo, animals (mammals)
Conditions: for C0, plasma GS-441524 / C0, plasma Remdesivir / F AUC(0-inf), plasma GS-441524 / F AUC(0-inf), plasma Remdesivir / F AUC(0-last), plasma GS-441524 / F AUC(0-last), plasma Remdesivir / Clast, plasma GS-441524 / Clast, plasma Remdesivir / t1/2last, plasma GS-441524 / t1/2last, plasma Remdesivir / tlast, plasma GS-441524 / tlast, plasma Remdesivir: 6.17 mg/kg Remdesivir equivalent; for F AUC(0-inf), plasma GS-441524 / F AUC(0-inf), plasma Remdesivir / F AUC(0-last), plasma GS-441524 / F AUC(0-last), plasma Remdesivir: relative to RDV IV
Experimental: Studies were undertaken to investigate the pharmacokinetic (PK) profile of two Remdesivir dendrimer conjugates following single intravenous (IV) or subcutaneous (SC) administration, and to compare them with that of Remdesivir (RDV).
The study consisted of two phases (PK Phase 1 and PK Phase 2) in a total of 6 animals (age 36-48 months) each part separated by a washout period: • PK Phase 1: Four animals (mammals) were studied. One male and one female were administered RHa-5 (BHALys [Lys]2[Lys]2[Lys]8[Lys]16[Lys]32[(α-NH-6N-TDA-Remdesivir)32(ε-NH-COPEG2000)32] 20% Remdesivir loading w/w) (test item) intravenously; and one male and one female were administered RHa-5 subcutaneously. Blood samples were taken over a period of 7 days. A minimum washout period of 14 days took place between the last blood sampling point of the PK Phase 1 and the start of PK Phase 2. • PK Phase 2: Six animals (mammals) were studied. One male and one female were administered RHa-15 (BHALys[Lys]2[Lys]4[Lys]8[Lys]16[Lys]32[(α-NH-3′ O-TDA-Remdesivir)32(ε-NH-COPEG2000)32] 18.63% Remdesivir loading w/w) (test item) intravenously; one male and one female were administered RHa-15 subcutaneously; and one male and one female were administered RDV (reference item). Blood samples were taken over a period of 7 days.
Formulation procedure: Test items RHa-5 and RHa-15 were reconstituted in Required volume of Water for injection (WFI), until a complete solution was obtained. The required volume of WFI was slowly added to RDV formulation (a lyophilate of 3.2% w/w RDV, 96.8% and sodium sulfobutylether-β-cyclodextrin adjusted to pH 3.5 with HCl) and shaken vigorously for 30 seconds. The solution was left for 20 minutes to ensure complete dissolution.
Administration: The clinical Remdesivir loading dose in humans is 200 mg. […] Allometric conversion of the dose from humans to small mammals results in an equivalent test dose of 6.17 mg/kg Remdesivir. Test item was administered as follows:
PK Phase 1: Two animal groups (A and B) of one male and one female each were administered test item RHa-5 at a Remdesivir equivalent dose of 6.17 mg/kg. Group A were administered the test item as a slow (30 seconds) intravenous bolus; and Group B were administered the test item over 30 seconds using the subcutaneous (SC) route into the back of the animal.
PK Phase 2: Three animal groups (C, D and E) of one male and one female each were included in this study phase. Groups C and D were administered test item RHa-15 at a Remdesivir equivalent dose of 6.17 mg/kg using the IV and SC routes, respectively. Group E were administered 6.17 mg/kg of RDV intravenously. IV administrations were done as a slow (30 seconds) bolus. SC administrations were done over 30 seconds.
Sampling schedule: Blood samples for PK analysis were collected as follows: • Day 1: pre-dose and at 15 min, 30 min, 1 h, 2 h, 4 h, 6 h, and 12 h after administration. • Days 2 to 8: 24, 48, 72, and 168 h after administration.
A blood volume of 2 mL was collected at each time point from the jugular vein with a 20-21G needle into a lithium heparin tube, and transferred into a tube containing 200 μL 0.15 M citric acid. Immediately following blood collection, the blood samples were mixed gently and kept on crushed ice until centrifugation at 1500 G for 10 min at 4° C. within 30 minutes of collection. Each plasma sample was stored frozen (˜80±10° C.).
The quantification range was 0.6 to 14400 ng/mL for Remdesivir and 0.6 to 14400 ng/mL for G441524.
Non-compartmental pharmacokinetic analysis was adopted to obtain the pharmacokinetic parameters from the blood concentration profiles.
The maximum concentration, Cmax, and time of maximum concentration, Tmax, were determined as the maximum measured concentration and its associated time. The area under the plasma concentration curve from 0 hours to the time of the last measurable concentration, AUC0-last, was calculated using linear trapezoidal estimation. […]

## BHALys[Lys]2[Lys]4[Lys]8[Lys]16[Lys]32[(α-NH-6N-TDA-Remdesivir)32(ε-NH-COPEG2000)32] [RHa-5]
IV and SC
  Release profile for plasma Remdesivir: excellent sustained release profile
IV, female (4F)
  C0, plasma GS-441524: 0.002 µg/mL
  C0, plasma Remdesivir: 4.648 µg/mL
  F AUC(0-inf), plasma GS-441524: 0.8 x-fold
  F AUC(0-inf), plasma Remdesivir: 605.7 x-fold
  F AUC(0-last), plasma GS-441524: 0.8 x-fold
  F AUC(0-last), plasma Remdesivir: 667.2 x-fold
IV, female (4F; RDV 6F)
  Clast, plasma GS-441524: 0.0037 µg/mL
  Clast, plasma Remdesivir: 0.022 µg/mL
  t1/2last, plasma GS-441524: 39.6 h
  t1/2last, plasma Remdesivir: 19.2 h
  tlast, plasma GS-441524: 168 h
  tlast, plasma Remdesivir: 168 h
IV, male (1M)
  C0, plasma GS-441524: 0.002 µg/mL
  C0, plasma Remdesivir: 5.701 µg/mL
  F AUC(0-inf), plasma GS-441524: 0.9 x-fold
  F AUC(0-inf), plasma Remdesivir: 437.4 x-fold
  F AUC(0-last), plasma GS-441524: 0.8 x-fold
  F AUC(0-last), plasma Remdesivir: 438.1 x-fold
IV, male (1M; RDV 3M)
  Clast, plasma GS-441524: 0.0031 µg/mL
  Clast, plasma Remdesivir: 0.0987 µg/mL
  t1/2last, plasma GS-441524: 36.6 h
  t1/2last, plasma Remdesivir: 29.5 h
  tlast, plasma GS-441524: 168 h
  tlast, plasma Remdesivir: 168 h
IV, mean of male and female
  C0, plasma GS-441524: 0.002 µg/mL
  C0, plasma Remdesivir: 5.175 µg/mL
  Clast, plasma GS-441524: 0.003 µg/mL
  Clast, plasma Remdesivir: 0.06 µg/mL
  t1/2last, plasma GS-441524: 38.1 h
  t1/2last, plasma Remdesivir: 24.3 h
  tlast, plasma GS-441524: 168 h
  tlast, plasma Remdesivir: 168 h
IV, mean
  F AUC(0-inf), plasma GS-441524: 0.8 x-fold
  F AUC(0-inf), plasma Remdesivir: 521.6 x-fold
  F AUC(0-last), plasma GS-441524: 1 x-fold
  F AUC(0-last), plasma Remdesivir: 553 x-fold
SC, female (5F)
  Clast, plasma GS-441524: 0.0065 µg/mL
  Clast, plasma Remdesivir: 0.0211 µg/mL
  tlast, plasma GS-441524: 168 h
  tlast, plasma Remdesivir: 168 h
  F AUC(0-last), plasma GS-441524: 0.7 x-fold
  F AUC(0-last), plasma Remdesivir: 113.8 x-fold
SC, male (2M)
  Clast, plasma GS-441524: 0.0088 µg/mL
  Clast, plasma Remdesivir: 0.0344 µg/mL
  t1/2last, plasma GS-441524: 61.9 h
  t1/2last, plasma Remdesivir: 28.9 h
  tlast, plasma GS-441524: 168 h
  tlast, plasma Remdesivir: 168 h
  F AUC(0-inf), plasma GS-441524: 1.1 x-fold
  F AUC(0-inf), plasma Remdesivir: 146.8 x-fold
  F AUC(0-last), plasma GS-441524: 1.0 x-fold
  F AUC(0-last), plasma Remdesivir: 146.9 x-fold
SC, mean
  Clast, plasma GS-441524: 0.0077 µg/mL
  Clast, plasma Remdesivir: 0.028 µg/mL
  t1/2last, plasma GS-441524: 61.9 h
  t1/2last, plasma Remdesivir: 28.9 h
  tlast, plasma GS-441524: 168 h
  tlast, plasma Remdesivir: 168 h
  F AUC(0-inf), plasma GS-441524: 1.1 x-fold
  F AUC(0-inf), plasma Remdesivir: 147 x-fold
  F AUC(0-last), plasma GS-441524: 1 x-fold
  F AUC(0-last), plasma Remdesivir: 130 x-fold
Delivered IV or SC
  Plasma Remdesivir t1/2 and AUC compared to RDV delivered IV: substantially extended plasma Remdesivir t1/2 and increased AUC
